# Data as given in publication PMC12431671, “Receptor transporter protein 4 (RTP4)-mediated repression of hepatitis C virus replication in mouse cells” (PLOS Pathogens, 2025).
# T1: HCV NS5A protein (hepatitis C virus J6/JFH1-Jc1, UniProt Q99IB8 1977-2442)
# T1 construct: NS5A, cut product of the polyprotein of hepatitis C virus J6/JFH1 (Jc1) chimeric genome; Untagged viral protein, detected with the mouse anti-NS5A antibody 9E10 (a tool); NS5A is a stretch of it; source: made by HCV J6/JFH1-Jc1 infection (MOI of 1) of Huh7-Lunet cells, in fixed cells
# T1 sequence: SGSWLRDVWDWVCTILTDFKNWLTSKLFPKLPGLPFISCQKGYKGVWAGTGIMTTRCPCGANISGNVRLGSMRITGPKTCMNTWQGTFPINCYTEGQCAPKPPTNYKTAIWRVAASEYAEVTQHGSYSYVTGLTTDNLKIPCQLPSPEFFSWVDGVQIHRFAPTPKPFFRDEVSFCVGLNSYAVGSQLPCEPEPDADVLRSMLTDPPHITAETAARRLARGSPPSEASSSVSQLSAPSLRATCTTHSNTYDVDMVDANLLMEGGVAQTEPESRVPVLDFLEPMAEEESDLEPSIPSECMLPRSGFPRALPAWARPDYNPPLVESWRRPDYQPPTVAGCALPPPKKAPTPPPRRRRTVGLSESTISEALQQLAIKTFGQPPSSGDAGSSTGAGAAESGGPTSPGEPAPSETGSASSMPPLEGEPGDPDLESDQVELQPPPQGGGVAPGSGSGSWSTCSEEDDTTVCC
# Molecular target: T1, HCV NS5A protein
# Test: proximity ligation; in situ PLA (Duolink In Situ Detection Reagents Green) in Huh7-Lunet cells infected with HCV J6/JFH1-Jc1 at MOI 1, transduced with FLAG-mmRTP4 or FLAG-hsRTP4 lentivirus, fixed in methanol 48 h post-transduction; Anti-Rabbit MINUS and Anti-Mouse PLUS probes; foci counted in 10 images per sample
# Conditions: partners not purified
binder,measurement,value
"FLAG-tagged murine receptor transporter protein 4 (FLAG-mmRTP4) (natural protein, Receptor transporter protein 4 (RTP4), mouse; also called mouse RTP4; murine RTP4; source: Huh7-Lunet cells, lentivirally transduced (pLVX), HCV-infected, in fixed cells; not shown: FLAG, N-terminal, kept) MLFPDDFSTWEQTFQELMQEEKPGAKWSLHLDKNIVPDGAALGWRQHQQTVLGRFQCSRCCRSWTSAQVMILCHMYPDTLKSQGQARMRIFGQKCQKCFGCQFETPKFSTEIIKRILNNLVNYILQRYYGHRKIALTSNASLGEKVTLDGPHDTRNCEACSLNSHGRCALAHKVKPPRSPSPLPKSSSPSKSCPPPPQTRNTDFGNKTFQDFGNRTFQGCREPPQREIEPPLFLFLSIAAFALFSLFTR",frequency of PLA foci relative to FLAG-hsRTP4 with NS5A,2 fold
